Results on one molecule are retold here after article PMC4113144, “IRF-1 regulates alternative mRNA splicing of carcinoembryonic antigen-related cell adhesion molecule 1 (CEACAM1) in breast epithelial cells generating an immunoreceptor tyrosine-based inhibition motif”.

This data set addresses T1, IRF-1 (UniProt P10914 1-325).
T1 sequence: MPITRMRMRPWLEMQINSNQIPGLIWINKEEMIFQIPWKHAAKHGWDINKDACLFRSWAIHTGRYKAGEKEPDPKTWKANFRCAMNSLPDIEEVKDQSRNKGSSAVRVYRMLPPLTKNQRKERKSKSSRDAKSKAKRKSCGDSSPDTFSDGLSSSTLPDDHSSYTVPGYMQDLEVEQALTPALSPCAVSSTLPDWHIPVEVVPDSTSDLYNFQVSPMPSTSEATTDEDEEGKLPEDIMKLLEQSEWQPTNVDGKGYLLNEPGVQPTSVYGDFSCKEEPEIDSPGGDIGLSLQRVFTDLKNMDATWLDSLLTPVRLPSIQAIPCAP
Description: EMSA; 17 pmol IRF-1 : 0.3 pmol DNA lowest ratio; mostly C1 plus C2 complexes; LightShift 1X binding buffer, 5% glycerol, 10 mM MgCl2, 200 ng poly(dI-dC), 0.3 pmol labeled DNA in 10 ul, room temperature 30 min; 6% DNA retardation gel; pH and salt not given. The note with it: protein: commercial; tags: His; label: IRDye 700. In general terms: Mobility shift assays separate free from complexed probe on a gel.

B1: CEACAM1 ISRE WT 60-mer (dsDNA)
DNA 1: TGGGAAACCAAAATGTAGACAGAAAGGAAAGAGAAAGTAAGGACAAAGGTAGGAATGAGA
DNA 2: TCTCATTCCTACCTTTGTCCTTACTTTCTCTTTCCTTTCTGTCTACATTTTGGTTTCCCA
With B1, the binding result is listed as “binds”.
